Reference: patent US20190225669A1

T1: BMP7, P18075
T1 chain: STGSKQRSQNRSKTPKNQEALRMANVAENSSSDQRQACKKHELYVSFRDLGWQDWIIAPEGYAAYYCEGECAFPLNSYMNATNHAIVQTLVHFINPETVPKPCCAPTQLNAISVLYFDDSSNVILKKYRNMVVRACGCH


Experiments:
Conditions in all cases: remark: other sources report otherwise
GDF8, O14793 [1] = assay: Biacore SPR; † very low signal
GDF8, O14793 [2] = assay: Biacore SPR
BMP7, P18075 = target: T1, BMP7, P18075; assay: Biacore SPR

GDF8, O14793, sequence (O14793 267-375 limits assumed): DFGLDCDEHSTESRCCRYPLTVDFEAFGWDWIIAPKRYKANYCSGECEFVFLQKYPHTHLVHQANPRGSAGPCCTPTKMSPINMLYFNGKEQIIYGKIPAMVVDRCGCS

Row | Binder | Kd (GDF8, O14793 [1]) [nM] | koff (GDF8, O14793 [2]) [s⁻¹] | kon (GDF8, O14793 [2]) [M⁻¹ s⁻¹] | Kd (BMP7, P18075) [nM] | koff (BMP7, P18075) [s⁻¹] | kon (BMP7, P18075) [M⁻¹ s⁻¹]
1 | ALK4-Fc homodimer, P36896 24-126 (Fc fusion, UniProt P36896 24-126, looked up, not shown: a dimerising Fc or GST) SGPRGVQALLCACTSCLQANYTCETDGACMVSIFNLDGMEHHVRTCIPKVELVPAGKPFYCLSSEDLRNTHCCYTDYCNRIDLRVPSGHLKEPEHPSMWGPVE | 15 | 0.0019 | 130000 |  |  | 
2 | ALK3-Fc homodimer, P36894 24-152 (Fc fusion, UniProt P36894 24-152, looked up, not shown: a dimerising Fc or GST) QNLDSMLHGTGMKSDSDQKKSENGVTLAPEDTLPFLKCYCSGHCPDDAINNTCITNGHCFAIIEEDDQGETTLASGCMKYEGSDFQCKDSPKAQLRRTIECCRTNLCNQYLQPTLPPVVIGPFFDGSIR |  |  |  | 15 | 0.018 | 1.2e+06
